125 sequences from the supplement of paper PMC9112550, “Optimization of the antimicrobial peptide Bac7 by deep mutational scanning” (BMC Biology, 2022) can be followed below.

The subject of the data set is Escherichia coli TOP10. The experiment in a line: shrunken log2 fold change of peptide-encoding DNA abundance (4.5 h post-induction vs induction); higher = less antimicrobial activity (less host growth inhibition). As to conditions: time post-induction: 4.5 h; library: site-saturation at positions 5, 18, 19, 20.
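Also: peptides expressed intracellularly from a pBAD plasmid library in pooled LB shake-flask culture, induced with 0.3% L-arabinose, DNA abundance read by NGS, three biological replicates, DESeq2 with apeglm shrinkage.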

RRIRQRPPRLPRPRPRPTHTPRP: the “shrunken log2 fold change” value worked out at 0.258.
The result for RRIRCRPPRLPRPRPRPPEMPRP reads 0.67.
Turning to RRIRERPPRLPRPRPRPMQYPRP, the “shrunken log2 fold change” value is -0.271.
Regarding RRIRYRPPRLPRPRPRPHWFPRP, the “shrunken log2 fold change” value was -0.402.
In the case of RRIRQRPPRLPRPRPRPWWSPRP it was 0.0234.
Consider RRIRFRPPRLPRPRPRPEAGPRP, for which the “shrunken log2 fold change” value worked out at 0.806.
On to RRIRNRPPRLPRPRPRPTHKPRP, for which the “shrunken log2 fold change” value stood at 0.322.
RRIRYRPPRLPRPRPRPIYHPRP: the “shrunken log2 fold change” value was -0.85.
On to RRIRFRPPRLPRPRPRPWPLPRP, for which the “shrunken log2 fold change” value was -0.0977.
In the case of RRIRSRPPRLPRPRPRPGTRPRP it was -0.0748; in that of RRIRRRPPRLPRPRPRPEYKPRP, -0.0169.
RRIRHRPPRLPRPRPRPNSLPRP: the “shrunken log2 fold change” value was -0.0817.
In the case of RRIRVRPPRLPRPRPRPGSVPRP it was -0.269.
As to RRIRDRPPRLPRPRPRPIKHPRP, the “shrunken log2 fold change” value is -0.373.
In the case of RRIRTRPPRLPRPRPRPLNRPRP, the “shrunken log2 fold change” value was -0.173.
Take RRIRERPPRLPRPRPRPWTYPRP: the “shrunken log2 fold change” value is -0.104.
Take RRIRLRPPRLPRPRPRPIGDPRP: the “shrunken log2 fold change” value is -0.118.
In the case of RRIRSRPPRLPRPRPRPRNQPRP it was 0.205.
In the case of RRIRKRPPRLPRPRPRPAGWPRP it was 0.893; in that of RRIRCRPPRLPRPRPRPYQAPRP, -1.11.
The result for RRIRVRPPRLPRPRPRPIRRPRP reads 0.0517; that for RRIRWRPPRLPRPRPRPWCHPRP, -0.422.
As for RRIRERPPRLPRPRPRPVCWPRP, the “shrunken log2 fold change” value was 0.337.
With RRIRKRPPRLPRPRPRPRSPPRP, the “shrunken log2 fold change” value amounted to 0.6.
In the case of RRIRPRPPRLPRPRPRPQCYPRP it was -0.44.
The result for RRIRRRPPRLPRPRPRPSHMPRP reads 0.157.
For the sequence RRIRHRPPRLPRPRPRPSNGPRP, the “shrunken log2 fold change” value is -0.605.
The result for RRIRDRPPRLPRPRPRPCNTPRP reads -0.224; that for RRIRGRPPRLPRPRPRPQHGPRP, 0.137; that for RRIRRRPPRLPRPRPRPDCCPRP, 0.168.
The result for RRIRTRPPRLPRPRPRPWWVPRP reads -0.0227.
In the case of RRIRWRPPRLPRPRPRPMVTPRP, the “shrunken log2 fold change” value is -0.072.
Take RRIRARPPRLPRPRPRPFKYPRP: the “shrunken log2 fold change” value is -0.0956.
The result for RRIRFRPPRLPRPRPRPVQTPRP reads 0.0206.
The result for RRIRGRPPRLPRPRPRPVWSPRP reads 0.179; that for RRIRFRPPRLPRPRPRPRPTPRP, 0.732; that for RRIRIRPPRLPRPRPRPMCLPRP, -0.425.
As to RRIRDRPPRLPRPRPRPECSPRP, the “shrunken log2 fold change” value was 0.0314.
Consider RRIRLRPPRLPRPRPRPILSPRP, for which the “shrunken log2 fold change” value is -0.0305.
In the case of RRIRSRPPRLPRPRPRPSFVPRP it was -0.705; in that of RRIRGRPPRLPRPRPRPFIRPRP, -0.257; in that of RRIRRRPPRLPRPRPRPTAGPRP, 0.109.
The result for RRIRQRPPRLPRPRPRPRPIPRP reads 0.385.
As for RRIRDRPPRLPRPRPRPCRWPRP, the “shrunken log2 fold change” value was -0.537.
In the case of RRIRERPPRLPRPRPRPRHHPRP it was -0.0796; in that of RRIRQRPPRLPRPRPRPGWHPRP, 0.0202; in that of RRIRHRPPRLPRPRPRPIRCPRP, -0.115.
With RRIRFRPPRLPRPRPRPHDKPRP, the “shrunken log2 fold change” value was -0.00198.
Consider RRIRVRPPRLPRPRPRPTNAPRP, for which the “shrunken log2 fold change” value is -0.211.
RRIRYRPPRLPRPRPRPECWPRP: the “shrunken log2 fold change” value worked out at 0.192.
The result for RRIRMRPPRLPRPRPRPPAQPRP reads 1.08; that for RRIRLRPPRLPRPRPRPCKTPRP, 0.0231.
On to RRIRRRPPRLPRPRPRPGPEPRP, for which the “shrunken log2 fold change” value is 0.662.
As for RRIRFRPPRLPRPRPRPYENPRP, the “shrunken log2 fold change” value is -0.463.
In the case of RRIRERPPRLPRPRPRPVSSPRP it was -0.215; in that of RRIRFRPPRLPRPRPRPEFKPRP, -0.0568; in that of RRIRIRPPRLPRPRPRPGSAPRP, 0.267.
The result for RRIRVRPPRLPRPRPRPCFVPRP reads -0.253; that for RRIRQRPPRLPRPRPRPRVDPRP, 0.241.
In the case of RRIRERPPRLPRPRPRPMSCPRP, the “shrunken log2 fold change” value was -0.206.
The result for RRIRRRPPRLPRPRPRPCANPRP reads -0.0911; that for RRIRLRPPRLPRPRPRPPTQPRP, 0.376; that for RRIRPRPPRLPRPRPRPRYPPRP, 0.202.
Turning to RRIRNRPPRLPRPRPRPCYVPRP, the “shrunken log2 fold change” value is -0.0102.
On to RRIRGRPPRLPRPRPRPTKQPRP, for which the “shrunken log2 fold change” value amounted to 0.169.
In the case of RRIRNRPPRLPRPRPRPMEVPRP it was -0.052; in that of RRIRRRPPRLPRPRPRPCYIPRP, -0.205; in that of RRIRGRPPRLPRPRPRPHVHPRP, -0.332.
In the case of RRIRERPPRLPRPRPRPTQMPRP it was -0.155; in that of RRIRRRPPRLPRPRPRPRNFPRP, 0.306.
In the case of RRIRWRPPRLPRPRPRPQCYPRP, the “shrunken log2 fold change” value was -0.252.
Turning to RRIRIRPPRLPRPRPRPQVNPRP, the “shrunken log2 fold change” value is -0.444.
The result for RRIRTRPPRLPRPRPRPFTGPRP reads -0.12; that for RRIRMRPPRLPRPRPRPYVKPRP, -0.209.
Take RRIRLRPPRLPRPRPRPHIHPRP: the “shrunken log2 fold change” value was -0.29.
In the case of RRIRARPPRLPRPRPRPTAVPRP it was 0.873.
In the case of RRIRMRPPRLPRPRPRPFKIPRP it was -0.0716.
Take RRIRKRPPRLPRPRPRPIWFPRP: the “shrunken log2 fold change” value is -0.0276.
In the case of RRIRSRPPRLPRPRPRPHGYPRP it was -0.244; in that of RRIRTRPPRLPRPRPRPDVHPRP, 1.16; in that of RRIRRRPPRLPRPRPRPYFMPRP, -0.353.
In the case of RRIRGRPPRLPRPRPRPIPWPRP it was 0.361; in that of RRIRKRPPRLPRPRPRPPEPPRP, 0.842; in that of RRIRGRPPRLPRPRPRPREHPRP, 0.783.
On to RRIRDRPPRLPRPRPRPMAMPRP, for which the “shrunken log2 fold change” value stood at 0.25.
Consider RRIRGRPPRLPRPRPRPYPKPRP, for which the “shrunken log2 fold change” value was determined as 0.161.
For RRIRCRPPRLPRPRPRPYNFPRP, the “shrunken log2 fold change” value was -0.497.
The result for RRIRSRPPRLPRPRPRPMDTPRP reads 0.0136; that for RRIRYRPPRLPRPRPRPEETPRP, -0.119.
In the case of RRIRTRPPRLPRPRPRPEPFPRP, the “shrunken log2 fold change” value amounted to 0.0259.
RRIRFRPPRLPRPRPRPQYGPRP: the “shrunken log2 fold change” value is -0.0328.
Consider RRIRMRPPRLPRPRPRPFMCPRP, for which the “shrunken log2 fold change” value was -0.171.
The result for RRIRYRPPRLPRPRPRPKGVPRP reads 0.028; that for RRIRGRPPRLPRPRPRPTRKPRP, 1.12; that for RRIRHRPPRLPRPRPRPEKQPRP, -0.0365.
Regarding RRIRKRPPRLPRPRPRPPHIPRP, the “shrunken log2 fold change” value stood at 0.41.
In the case of RRIRGRPPRLPRPRPRPCRVPRP it was -0.0297.
The result for RRIRTRPPRLPRPRPRPPWYPRP reads -0.166; that for RRIRNRPPRLPRPRPRPVISPRP, 0.156; that for RRIRRRPPRLPRPRPRPPQYPRP, 1.12.
In the case of RRIRERPPRLPRPRPRPQLQPRP it was -0.0648.
Consider RRIRGRPPRLPRPRPRPVVQPRP, for which the “shrunken log2 fold change” value worked out at 0.94.
The result for RRIRWRPPRLPRPRPRPGIVPRP reads 0.585; that for RRIRVRPPRLPRPRPRPGYYPRP, -0.248.
In the case of RRIRERPPRLPRPRPRPIRAPRP it was 0.0262.
In the case of RRIRWRPPRLPRPRPRPQKMPRP it was -0.0924; in that of RRIRHRPPRLPRPRPRPQQQPRP, -0.158.
RRIRSRPPRLPRPRPRPKDGPRP: the “shrunken log2 fold change” value was found to be 0.307.
As for RRIRYRPPRLPRPRPRPVNCPRP, the “shrunken log2 fold change” value was found to be 0.0039.
In the case of RRIRDRPPRLPRPRPRPMPPPRP it was 0.361; in that of RRIRMRPPRLPRPRPRPCLAPRP, 0.215.
The result for RRIRPRPPRLPRPRPRPCNTPRP reads -0.333; that for RRIRRRPPRLPRPRPRPMTQPRP, 0.176.
On to RRIRRRPPRLPRPRPRPQMKPRP, for which the “shrunken log2 fold change” value was -0.0643.
For RRIRNRPPRLPRPRPRPSHCPRP, the “shrunken log2 fold change” value was -0.801.
Turning to RRIRDRPPRLPRPRPRPYTYPRP, the “shrunken log2 fold change” value worked out at 0.0218.
The result for RRIRDRPPRLPRPRPRPSALPRP reads 0.162; that for RRIRVRPPRLPRPRPRPTTWPRP, -0.0829; that for RRIRGRPPRLPRPRPRPPENPRP, 1.11.
Regarding RRIRARPPRLPRPRPRPHGYPRP, the “shrunken log2 fold change” value was 0.0466.
The result for RRIRKRPPRLPRPRPRPCEQPRP reads 0.324; that for RRIRWRPPRLPRPRPRPVPWPRP, 0.374.
Take RRIRLRPPRLPRPRPRPFNQPRP: the “shrunken log2 fold change” value is -0.122.
The result for RRIRHRPPRLPRPRPRPISQPRP reads -0.0145.
With RRIRLRPPRLPRPRPRPFVRPRP, the “shrunken log2 fold change” value is 0.00108.
